Laboratory results from article PMC7286819, “SIRT7 activates p53 by enhancing PCAF-mediated MDM2 degradation to arrest the cell cycle” (Oncogene, 2020).

Target: T1, Full-length His-PCAF fusion protein (UniProt Q92831 1-832)
T1 construct: PCAF, full length, cDNA cloned into pET-28a; source: E. coli, purified
Test: pull-down; GST or GST-SIRT7 on glutathione-Sepharose 4B beads incubated with 6xHis-tagged PCAF from E. coli at 4 C overnight; washed with TEN buffer (0.5% NP-40, 20 mM Tris pH 7.4, 0.1 mM EDTA, 300 mM NaCl); immunoblot
Conditions: both partners purified

T1 sequence (Q92831 whole entry, the tested form may be a part): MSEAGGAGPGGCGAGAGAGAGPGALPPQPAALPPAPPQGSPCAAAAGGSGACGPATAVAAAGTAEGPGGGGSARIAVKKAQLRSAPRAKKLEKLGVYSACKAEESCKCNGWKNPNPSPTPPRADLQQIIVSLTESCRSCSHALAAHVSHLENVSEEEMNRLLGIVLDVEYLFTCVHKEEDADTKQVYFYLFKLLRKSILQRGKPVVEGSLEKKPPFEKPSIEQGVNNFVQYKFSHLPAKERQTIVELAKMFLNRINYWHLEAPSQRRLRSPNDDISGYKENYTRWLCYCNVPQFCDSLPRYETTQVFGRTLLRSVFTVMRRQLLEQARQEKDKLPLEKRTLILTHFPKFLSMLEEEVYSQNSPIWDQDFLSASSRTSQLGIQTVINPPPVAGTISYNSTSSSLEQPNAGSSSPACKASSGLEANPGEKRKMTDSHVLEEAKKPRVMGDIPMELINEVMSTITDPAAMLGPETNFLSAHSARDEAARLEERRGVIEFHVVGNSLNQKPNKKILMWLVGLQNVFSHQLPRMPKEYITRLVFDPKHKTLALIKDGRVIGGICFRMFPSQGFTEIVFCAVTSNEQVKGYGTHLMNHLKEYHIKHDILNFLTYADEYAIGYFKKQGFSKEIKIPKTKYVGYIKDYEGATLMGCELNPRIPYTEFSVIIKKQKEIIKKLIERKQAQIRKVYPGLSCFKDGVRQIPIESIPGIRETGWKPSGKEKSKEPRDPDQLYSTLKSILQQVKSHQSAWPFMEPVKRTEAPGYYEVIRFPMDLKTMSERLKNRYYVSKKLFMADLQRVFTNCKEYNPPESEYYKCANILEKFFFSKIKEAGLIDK

- binding result: binds
B1: full-length GST-tagged SIRT7 (natural protein, UniProt Q9NRC8 1-400, looked up)
chain: MAAGGLSRSERKAAERVRRLREEQQRERLRQVSRILRKAAAERSAEEGRLLAESADLVTELQGRSRRREGLKRRQEEVCDDPEELRGKVRELASAVRNAKYLVVYTGAGISTAASIPDYRGPNGVWTLLQKGRSVSAADLSEAEPTLTHMSITRLHEQKLVQHVVSQNCDGLHLRSGLPRTAISELHGNMYIEVCTSCVPNREYVRVFDVTERTALHRHQTGRTCHKCGTQLRDTIVHFGERGTLGQPLNWEAATEAASRADTILCLGSSLKVLKKYPRLWCMTKPPSRRPKLYIVNLQWTPKDDWAALKLHGKCDDVMRLLMAELGLEIPAYSRWQDPIFSLATPLRAGEEGSHSRKSLCRSREEAPPGDRGAPLSSAPILGGWFGRGCTKRTKRKKVT
notes: SIRT7, full length, cDNA cloned into pGEX-4T1; also called GST-SIRT7; full-length (FL) SIRT7; source: E. coli, purified on glutathione-Sepharose 4B beads
